Assay results taken from patent US20110207917A1.

Target: SAM-6 Receptor (SAM-6/R) glycoprotein, about 80 kDa Grp78 variant of tumor cells (human) (UniProt P11021)
Assay: FACS on BXPC-3 cells transfected with Grp78 siRNA

Sequence of SAM-6 Receptor (SAM-6/R) glycoprotein, about 80 kDa Grp78 variant of tumor cells (human) (P11021 18-654, change not shown): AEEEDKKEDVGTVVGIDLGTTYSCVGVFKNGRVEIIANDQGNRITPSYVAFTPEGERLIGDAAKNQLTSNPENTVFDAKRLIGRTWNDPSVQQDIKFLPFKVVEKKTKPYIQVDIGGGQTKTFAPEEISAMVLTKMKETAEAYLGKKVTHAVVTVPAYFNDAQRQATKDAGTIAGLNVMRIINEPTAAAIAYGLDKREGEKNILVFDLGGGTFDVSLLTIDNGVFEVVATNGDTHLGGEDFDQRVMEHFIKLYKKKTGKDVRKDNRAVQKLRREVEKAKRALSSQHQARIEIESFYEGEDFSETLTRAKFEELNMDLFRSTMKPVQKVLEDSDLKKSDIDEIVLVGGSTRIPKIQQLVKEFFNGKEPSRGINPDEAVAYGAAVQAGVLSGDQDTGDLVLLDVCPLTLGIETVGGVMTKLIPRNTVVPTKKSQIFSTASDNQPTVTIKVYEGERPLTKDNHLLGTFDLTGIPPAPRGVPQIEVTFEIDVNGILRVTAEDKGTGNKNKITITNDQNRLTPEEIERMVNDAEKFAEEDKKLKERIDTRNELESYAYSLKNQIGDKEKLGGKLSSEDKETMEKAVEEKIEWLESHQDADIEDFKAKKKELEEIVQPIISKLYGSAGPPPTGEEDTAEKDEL

- % reduction of binding after Grp78 siRNA transfection: 76%
Substance: anti-GRP78 antibody clone ET-21 (Sigma)
